First the molecules themselves.
B1: TPR t1 (parent)
chain: GACCAAUCUGCCCUCAGAGCUCGAGAACAUCUUCGGAUGCAGAGGAGGCAGGCUUCGGUGGCGCGAUAGCGCCAACGUCCUCAACCUCCAAUGCAUCCCACCACAUGAUGAUGCCUGAAGAGCCUUGGUUUUUUG

The series covers variants of B1. Nature of the series: polymerase ribozyme fitness, log enrichment relative to wild type (log ratio); higher = more active; in vitro selection for triplet polymerase activity. Summed up: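 Fitness is a logarithmic measure of how a genotype enriched relative to the wild type, with replicate averages weighted by inverse variance. The logarithm uses base 2, and enrichment came from Illumina sequencing of input and output libraries. Those libraries were PCR-built, transcribed mutants of each subunit of a heterodimeric triplet polymerase ribozyme, passed through one triplicate in vitro selection round that included frozen incubation at −7 °C, gel excision of extended constructs and streptavidin-bead capture. Genotypes were kept only if they had ≥10 input reads and ≥1 read per output.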
In the case of C15A G52A G61U C88A A95C U112C C124U, the “polymerase ribozyme fitness (log ratio)” value was -1.64.

For U14A G48A C56U G117U, the “polymerase ribozyme fitness (log ratio)” value was -5.41.

As to C15A C56U, the “polymerase ribozyme fitness (log ratio)” value is -1.71.

On to C15A C56A, for which the “polymerase ribozyme fitness (log ratio)” value was -0.645.

Consider C15U G39C G71A, for which the “polymerase ribozyme fitness (log ratio)” value was -2.36.

With C15G G63A U116G, the “polymerase ribozyme fitness (log ratio)” value was -3.64.

For C13U G17U, the “polymerase ribozyme fitness (log ratio)” value is -2.37.

Regarding C15G C70U, the “polymerase ribozyme fitness (log ratio)” value was -3.1.

As for C15A U109G G113A U131A, the “polymerase ribozyme fitness (log ratio)” value was -5.16.

On to U14G A50U C56U G93U U112A, for which the “polymerase ribozyme fitness (log ratio)” value was -3.22.

In the case of U14C A18U G48U G71A, the “polymerase ribozyme fitness (log ratio)” value is -6.1.

Turning to U14G A41C A74U A84C, the “polymerase ribozyme fitness (log ratio)” value was -3.77.

Take C15A G44A G45U G48U C62U C73U U78G: the “polymerase ribozyme fitness (log ratio)” value is -5.47.

For the variant C15G A16C G51U G61U G71C C79A U112G, the “polymerase ribozyme fitness (log ratio)” value is -6.41.

Regarding C15G U55C A75G, the “polymerase ribozyme fitness (log ratio)” value was -3.14.

Turning to C15U A37U C62U, the “polymerase ribozyme fitness (log ratio)” value was -1.85.

Take C13U U14A G71A C82G: the “polymerase ribozyme fitness (log ratio)” value is -2.67.

As for C15G G71U C72U A95U, the “polymerase ribozyme fitness (log ratio)” value was -4.5.

As for C15U G36A, the “polymerase ribozyme fitness (log ratio)” value was -1.76.

Regarding C15U C64U G77A G93C C98U G120A C124G, the “polymerase ribozyme fitness (log ratio)” value is -1.82.

With C15U C22G G61C C114G, the “polymerase ribozyme fitness (log ratio)” value is -7.09.

C13U G35A C86G: the “polymerase ribozyme fitness (log ratio)” value was -3.98.

In the case of C15G C72U, the “polymerase ribozyme fitness (log ratio)” value was -3.01.

As to C13U U55G C79U, the “polymerase ribozyme fitness (log ratio)” value was 0.324.

With C15U C34G C53U C114U, the “polymerase ribozyme fitness (log ratio)” value is -5.11.

For C13U G110U, the “polymerase ribozyme fitness (log ratio)” value is -1.02.

As to U14G G39A C85U G117A, the “polymerase ribozyme fitness (log ratio)” value is -3.84.

Turning to C15A A68G C97A A103G, the “polymerase ribozyme fitness (log ratio)” value is -6.8.

For C15G A118U U131A, the “polymerase ribozyme fitness (log ratio)” value was -1.47.

In the case of C15G G44C G57U, the “polymerase ribozyme fitness (log ratio)” value was -3.85.

Take C15G C94A: the “polymerase ribozyme fitness (log ratio)” value is -3.63.

Consider C15U A95U, for which the “polymerase ribozyme fitness (log ratio)” value was -2.49.

On to C15U A37G G71A C80U A118U U133A, for which the “polymerase ribozyme fitness (log ratio)” value is -4.3.

As to C15G G110A, the “polymerase ribozyme fitness (log ratio)” value is -3.78.

Turning to C13U G48A C56A G71A A90G, the “polymerase ribozyme fitness (log ratio)” value was -4.36.

For the variant U14A A74C C76A A121C, the “polymerase ribozyme fitness (log ratio)” value was -1.88.

For the variant C15G C56U U87A C115U U131C, the “polymerase ribozyme fitness (log ratio)” value is -0.823.

For U14G A46G G71C G120A, the “polymerase ribozyme fitness (log ratio)” value is -0.69.

In the case of U14C A37C, the “polymerase ribozyme fitness (log ratio)” value was -2.09.

On to C15A U33A G42C U78C C79U A111G, for which the “polymerase ribozyme fitness (log ratio)” value was -6.15.

Take C13U U32C G93C A95G: the “polymerase ribozyme fitness (log ratio)” value was -1.09.

On to C13U U59C C70G, for which the “polymerase ribozyme fitness (log ratio)” value is -4.01.

Consider C13U G19U G52U, for which the “polymerase ribozyme fitness (log ratio)” value is -2.98.

On to U14A C56A C62U, for which the “polymerase ribozyme fitness (log ratio)” value was -2.93.

Turning to U14C A43G, the “polymerase ribozyme fitness (log ratio)” value was -3.2.

Consider C15U A16U G42C G61A C89A, for which the “polymerase ribozyme fitness (log ratio)” value was -1.37.

C13U C82U A83G A118U: the “polymerase ribozyme fitness (log ratio)” value was -1.83.

On to U14A A43G G58A C86U, for which the “polymerase ribozyme fitness (log ratio)” value was -4.43.

For the variant C15A C20A A118U, the “polymerase ribozyme fitness (log ratio)” value was -3.93.

For the variant C15A C88U, the “polymerase ribozyme fitness (log ratio)” value was -2.17.

C15U C73U C94A A111C: the “polymerase ribozyme fitness (log ratio)” value was -2.53.

Consider U14G C15A, for which the “polymerase ribozyme fitness (log ratio)” value was -3.45.

Consider C13U G39A G58U C79G C97U, for which the “polymerase ribozyme fitness (log ratio)” value was -2.64.

In the case of U14G G48U G60U, the “polymerase ribozyme fitness (log ratio)” value was -2.56.

As for C15A A46C G63A G113C C114U, the “polymerase ribozyme fitness (log ratio)” value was -6.03.

As to C13U C82G, the “polymerase ribozyme fitness (log ratio)” value was 0.0764.

With C13U C104A, the “polymerase ribozyme fitness (log ratio)” value is -1.47.

As to U14C U55C G117U U133G, the “polymerase ribozyme fitness (log ratio)” value is -5.59.

Regarding C13U U96A, the “polymerase ribozyme fitness (log ratio)” value was -1.11.

For C15G A18U C70U U116A G120U, the “polymerase ribozyme fitness (log ratio)” value is -1.19.

U14C C31G U33G G65U A95U G117U: the “polymerase ribozyme fitness (log ratio)” value was -7.34.

For C13U G63A U78C, the “polymerase ribozyme fitness (log ratio)” value is -0.503.

As to U14C C72A, the “polymerase ribozyme fitness (log ratio)” value was -0.983.

C13U G63U: the “polymerase ribozyme fitness (log ratio)” value was -0.742.

As to C13U G63C, the “polymerase ribozyme fitness (log ratio)” value was -0.36.

On to C15U A66G G71A C98A G113U, for which the “polymerase ribozyme fitness (log ratio)” value is -7.64.

Take U14A C49U G52U A121U U125A: the “polymerase ribozyme fitness (log ratio)” value is -1.22.

Turning to U14A C70G G77C U112C A119G U131G, the “polymerase ribozyme fitness (log ratio)” value is -3.76.

In the case of C15A G61A, the “polymerase ribozyme fitness (log ratio)” value is -2.09.

For the variant C15A G61C, the “polymerase ribozyme fitness (log ratio)” value was -4.23.

For C15U A50U G63C C89U, the “polymerase ribozyme fitness (log ratio)” value is -3.78.

Turning to U14A A18U C31G U38G G107A C124A, the “polymerase ribozyme fitness (log ratio)” value is -6.73.

For the variant C13U U21C C64U, the “polymerase ribozyme fitness (log ratio)” value was -0.0953.

Take U14C C80U: the “polymerase ribozyme fitness (log ratio)” value was -2.7.

Take C15G U112A: the “polymerase ribozyme fitness (log ratio)” value is -1.44.

Consider C15A C70A, for which the “polymerase ribozyme fitness (log ratio)” value was -2.47.

With C15A C70U, the “polymerase ribozyme fitness (log ratio)” value was -2.96.

For C13U G52C C94G A100U G113A, the “polymerase ribozyme fitness (log ratio)” value was -2.95.

Consider C13U G60C, for which the “polymerase ribozyme fitness (log ratio)” value was -0.502.

For C13U U55A G61C A84U C85G A95G U125G G128U, the “polymerase ribozyme fitness (log ratio)” value is -3.92.

On to C13U C70A, for which the “polymerase ribozyme fitness (log ratio)” value was -0.46.

As to C15U A50U C76U U78A, the “polymerase ribozyme fitness (log ratio)” value was -3.61.

As for U14A U125A, the “polymerase ribozyme fitness (log ratio)” value was -2.3.

Regarding U14A U125G, the “polymerase ribozyme fitness (log ratio)” value was -3.25.

The values above are taken from the RNAGym collection of RNA variant scans (doi:10.1073/pnas.2313332121).
